# In patent US20220119469:
# Legend:
# [1] = molecular target: T1, Spy-C cMyBP-C (cMyBP-C of Spy-C mice with a TEV protease recognition site and a SpyTag sequence in the linker between domains C7 and C8), uncut
# T1 chain: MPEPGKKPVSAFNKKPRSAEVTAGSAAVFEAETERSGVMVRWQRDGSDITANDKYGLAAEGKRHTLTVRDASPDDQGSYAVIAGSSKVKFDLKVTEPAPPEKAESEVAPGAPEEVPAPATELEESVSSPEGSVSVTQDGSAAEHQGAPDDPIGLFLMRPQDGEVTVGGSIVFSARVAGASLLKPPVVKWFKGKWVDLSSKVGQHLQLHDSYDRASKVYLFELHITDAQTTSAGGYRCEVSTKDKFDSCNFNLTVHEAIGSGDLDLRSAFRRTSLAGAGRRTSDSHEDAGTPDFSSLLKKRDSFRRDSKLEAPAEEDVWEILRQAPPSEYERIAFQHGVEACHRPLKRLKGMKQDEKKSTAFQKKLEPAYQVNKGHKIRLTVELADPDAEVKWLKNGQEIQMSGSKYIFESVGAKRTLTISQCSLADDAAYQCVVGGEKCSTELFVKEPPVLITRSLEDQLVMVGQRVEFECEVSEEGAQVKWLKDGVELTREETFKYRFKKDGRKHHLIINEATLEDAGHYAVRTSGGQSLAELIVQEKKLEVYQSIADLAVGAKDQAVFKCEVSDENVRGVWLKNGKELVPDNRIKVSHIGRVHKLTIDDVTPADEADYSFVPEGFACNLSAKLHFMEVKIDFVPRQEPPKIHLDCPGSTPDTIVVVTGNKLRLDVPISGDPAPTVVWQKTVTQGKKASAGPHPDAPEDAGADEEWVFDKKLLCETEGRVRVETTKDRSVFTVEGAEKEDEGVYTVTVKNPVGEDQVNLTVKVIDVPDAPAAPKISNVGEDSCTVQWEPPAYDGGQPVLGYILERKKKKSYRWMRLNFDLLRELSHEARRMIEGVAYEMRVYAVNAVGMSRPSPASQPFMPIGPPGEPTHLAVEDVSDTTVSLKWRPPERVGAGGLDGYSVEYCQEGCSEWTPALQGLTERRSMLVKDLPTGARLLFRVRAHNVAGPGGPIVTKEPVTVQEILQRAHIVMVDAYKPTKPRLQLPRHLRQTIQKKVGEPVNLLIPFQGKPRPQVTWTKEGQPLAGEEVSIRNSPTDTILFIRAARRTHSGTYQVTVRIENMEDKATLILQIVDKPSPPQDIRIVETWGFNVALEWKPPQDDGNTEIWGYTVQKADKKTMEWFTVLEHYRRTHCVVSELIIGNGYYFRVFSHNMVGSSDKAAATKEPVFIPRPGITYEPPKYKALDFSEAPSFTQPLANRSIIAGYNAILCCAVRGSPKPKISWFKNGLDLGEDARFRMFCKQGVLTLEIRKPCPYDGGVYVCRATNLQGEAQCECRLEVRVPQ
# [2] = molecular target: endogenous MyBP-C in wild type soleus tissue
# [3] = molecular target: endogenous MyBP-C of homozygous soleus tissue (with TEV site and SpyTag), uncut
protein,measurement,setting,value
TEV protease (protein) GESLFKGPRDYNPISSTICHLTNESDGHTTSLYGIGFGPFIITNKHLFRRNNGTLLVQSLHGVFKVKNTTTLQQHLIDGRDMIIIRMPKDFPPFPQKLKFREPQREERICLVTTNFQTKSMSSMVSDTSCTFPSSDGIFWKHWIQTKDGQCGSPLVSTRDGFIVGIHSASNFTNTNNYFTSVPKNFMELLTNQEAQQWVSGWRLNADSVLWGGHKVFMSKPEEPFQPVKEATQLMN,cleavage in permeabilized myocytes,[1],Spy-C cMyBP-C was cleaved at the TEV site
same,size on western blot,[2],"the size of endogenous MyBP-C in wild type tissue is unaffected by TEVp, washing and addition of replacement protein"
same,decrease in molecular weight on western blot,[3],"endogenous MyBP-C domains C1-C7 in homozygous tissue are cleaved with TEV protease (TEVp), shown by a decrease in molecular weight"
